Measured values reported in publication PMC4395295.

What was measured:
[1] = target: ZEN-4 1-585mAG (C. elegans)
[2] = target: VenusZ435-555 (ZEN-4 neck and coiled coil with the motor domain replaced by Venus) (C. elegans); experiment: SDS-PAGE and densitometry of the purified complex; band intensities of the ZEN-4 and CYK-4 fragments, staining assumed proportional to molecular weight
Sequence of VenusZ435-555 (ZEN-4 neck and coiled coil with the motor domain replaced by Venus) (C. elegans) (main, as listed by the source): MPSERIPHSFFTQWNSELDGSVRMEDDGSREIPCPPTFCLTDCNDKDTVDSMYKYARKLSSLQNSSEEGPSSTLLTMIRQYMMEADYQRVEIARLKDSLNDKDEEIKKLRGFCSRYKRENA

microtubule gliding velocity of surface-immobilised Z585mAG co-purified with C120 (180 nm/s for Z585mAG alone) [1]: 30 nm/s
stoichiometry N (C120 per ZEN-4 fragment) [2]: 0.94
Substance: CYK-4 1-120 (domain or fragment)
